The target in the assay is replication protein A (RPA) heterotrimer (UniProt P27694).

B1: N-HelQ, N-terminal HelQ fragment (amino acids 1-240) (domain or fragment)
chain: MDECGSRIRRRVSLPKRNRPSLGCIFGAPTAAELVPGDEGKEEEEMVAENRRRKTAGVLPVEVQPLLLSDSPECLVLGGGDTNPDLLRHMPTDRGVGDQPNDSEVDMFGDYDSFTENSFIAQVDDLEQKYMQLPEHKKHATDFATENLCSESIKNKLSITTIGNLTELQTDKHTENQSGYEGVTIEPGADLLYDVPSSQAIYFENLQNSSNDLGDHSMKERDWKSSSHNTVNEELPHNCI
B1: the free, unbound DNA liberated from pre-bound RPA (12.5 nM)–fork-2 DNA complex in EMSAs on incremental addition of N-HelQ (0–500 nM) was 40%.

The record behind these values is publication PMC8210318.
